According to article PMC7402679:
Where “and” joins values, the source holds several entries; their conditions need not be identical. Equal values may be shown once.

Molecular target: HA-tagged MnPV L1_(SHORT), expressed in Mastomys-derived fibroblasts (Mastomys natalensis papillomavirus (MnPV))
Test: SDS-PAGE and western blot of high-MW (multimer) bands; lysates of transfected MaFi132 cells in 1.25x Laemmli buffer (2.5% SDS, 2.5% beta-mercaptoethanol), 95 C 5 min; 8% SDS-PAGE; detected with mAb 2D11, Mastomys serum mix and anti-HA

In the case of “HA-tagged MnPV L1_(SHORT), expressed in Mastomys-derived fibroblasts (natural protein)”, the stoichiometry N is reported as 2 and 3.
